No end group written: not given here. *: point of attachment. For = O=C*
B1: formyl peptide receptor (FPR), wild type, detergent-solubilized (receptor, human, UniProt P21462 1-350, looked up)
chain: METNSSLPTNISGGTPAVSAGYLFLDIITYLVFAVTFVLGVLGNGLVIWVAGFRMTHTVTTISYLNLAVADFCFTSTLPFFMVRKAMGGHWPFGWFLCKFVFTIVDINLFGSVFLIALIALDRCVCVLHPVWTQNHRTVSLAKKVIIGPWVMALLLTLPVIIRVTTVPGKTGTVACTFNFSPWTNDPKERINVAVAMLTVRGIIRFIIGFSAPMSIVAVSYGLIATKIHKQGLIKSSRPLRVLSFVAAAFFLCWSPYQVVALIATVRIRELLQGMYKEIGIAVDVTSALAFFNSCLNPMLYVFMGQDFRERLIHALPASLERALTEDSTQTSDTATNSTLPSAEVELQAK
notes: Used as a crude dodecyl maltoside extract of U937 membranes, not purified; In ternary complex assays it is occupied by the fluorescent ligand L^F; also called wild type receptor; soluble FPR
B3: FPR-GFP fusion protein (receptor)
chain: not shown
notes: also called R^F; receptor-GFP fusion protein

Assays:
[1] = target: T1, G protein heterotrimer αi3β1H6γ2 (human, UniProt P62873 2-340; P59768 2-68); assay: flow cytometry, L^FRG assembly on αi3β1H6γ2 DCNi beads, more nearly optimal conditions
[2] = target: T1, G protein heterotrimer αi3β1H6γ2; assay: flow cytometry, αi3β1H6γ2 on DCNi beads, 60 nM FPR with 75 nM L^F; uncoated beads about 9,000 fluorophores
Description: (§1) Each mixture was mixed by pipetting to ensure a uniform starting suspension of the beads in 96 V-well plates (Costar), and then mixed at low speed on a vortex mixer at 7° for two hours. The 10 μl assays were individually brought to 200 μl with 0.1% dodecyl maltoside in buffer A in 12×75 mm tubes for flow cytometric measurement of fluorescence of the beads. LRG assembly was defined as the difference between fluorescence without GTPγS and that with GTPγS. All determinations were done in duplicate.
(§2) The 10 μl assay was then diluted to 200 μl for spectrofluorimetric measurement. […] Uncoated beads were used in an assembly assay, bar 1, or were coated with G protein βγ only and used in an assembly assay, bar 2.

β1H6γ2 dimer [3] = target: T2, β1H6γ2 dimer (human, UniProt P62873 2-340; P59768 2-68); assay: flow cytometry of DCNi beads coated with βγ, 60 nM FPR and 75 nM L^F, with 0.1 mM GTPγS only background fluorescence
T2 construct: Purified from Sf9 cells and held on DCNi beads by the hexahistidine tag; also called βγ; Gβγ
Description: as §1, §2

β1H6γ2 dimer [4] = target: T2, β1H6γ2 dimer; assay: flow cytometry, β1H6γ2 on DCNi beads, 1 µM GTP against GTPγS background
Description: as §1

[5] = target: T1, G protein heterotrimer αi3β1H6γ2; assay: flow cytometry, LR^FG assembly on αβγ DCNi beads against GTPγS background
Description: as §1

[6] = target: T1, G protein heterotrimer αi3β1H6γ2; assay: flow cytometry, LR^FG assembly on αβγ DCNi beads, FPR-GFP varied with saturating fMLFFGGK; binding nearly linear over the range (FIG. 12D)
[7] = target: B1; assay: spectrofluorimetry, solubilized FPR, free ligand quenched with anti-FITC antibody, ligand-binding curve of FIG. 8B
Description: Fluorescence was measured with an SLM 8000 spectrofluorimeter (SLM Instruments, Inc.) using the photon counting mode. The sample holder was fitted with a cylindrical cuvette adapter, which allowed the use of 200 µl samples in 7 mm×45 mm cylindrical cuvettes (Sienco; Wheat Ridge, Colo.), stirred with 2×5 mm stir bars (Bel-Art). […] Emission was monitored using a 520+/−10 nm filter (Corion) and a 500 nm long-pass filter (Kopp; Pittsburg, Pa.). Additions to samples during kinetic measurements were made through an injection port on the top of the sample holder with 10 µl glass syringes (Hamilton; Reno, Nev.).

[8] = target: T3, formyl peptide receptor with a C-terminal hexahistidine tag (FPR:C-H6) (human, UniProt P21462 1-350); assay: flow cytometry, hexahistidine-tagged FPR on DCNi beads, L^F titrated (FIG. 9E)
T3 construct: Solubilized from membranes and captured on dextran chelate nickel (DCNi) beads; also called C-H6:FPR
T3 sequence: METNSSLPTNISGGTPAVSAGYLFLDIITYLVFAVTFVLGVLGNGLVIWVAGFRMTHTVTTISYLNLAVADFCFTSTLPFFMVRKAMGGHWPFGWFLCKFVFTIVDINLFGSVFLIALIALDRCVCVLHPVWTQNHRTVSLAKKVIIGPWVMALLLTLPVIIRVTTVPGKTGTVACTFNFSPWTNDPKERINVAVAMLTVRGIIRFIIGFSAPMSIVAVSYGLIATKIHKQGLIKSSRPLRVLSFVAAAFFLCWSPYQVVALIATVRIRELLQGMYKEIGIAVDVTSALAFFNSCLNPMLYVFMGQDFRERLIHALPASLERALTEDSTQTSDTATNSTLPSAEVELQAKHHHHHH
Description: The initial bead fluorescence was measured for twenty seconds, then an anti-FITC antibody was mixed with the beads, and the decrease in bead fluorescence was measured for another 100 seconds. The line shown is a best fit to a plateau, followed by an exponential decrease to the bottom.

FPR-GFP fusion protein = target: B3; assay: flow cytometry, LR^FG assembly on αβγ DCNi beads, L varied; receptor depletes the ligand, so the filing says that the affinity of L for R^F is not revealed (FIG. 12C)
Description: as §1, with “Standard LRG Assembly Assay. […] Each” for “Each”

T1 sequence (P62873 2-340, chain 1 of 2): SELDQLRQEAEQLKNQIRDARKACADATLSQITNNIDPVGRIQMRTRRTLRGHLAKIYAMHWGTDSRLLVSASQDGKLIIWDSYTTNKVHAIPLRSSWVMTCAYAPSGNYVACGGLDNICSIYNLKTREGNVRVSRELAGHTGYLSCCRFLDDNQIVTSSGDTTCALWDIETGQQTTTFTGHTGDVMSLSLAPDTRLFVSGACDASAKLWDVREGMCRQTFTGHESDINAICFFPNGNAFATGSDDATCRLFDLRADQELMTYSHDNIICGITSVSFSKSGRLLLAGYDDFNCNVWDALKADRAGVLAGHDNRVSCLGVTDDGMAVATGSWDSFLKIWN
T1 sequence (P59768 other isoform, or with tags, fused parts or gaps, chain 2 of 2): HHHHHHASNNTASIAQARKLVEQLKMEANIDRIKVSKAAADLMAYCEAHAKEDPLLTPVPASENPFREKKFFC
T2 sequence (P62873 2-340, chain 1 of 2): as the sequence (P62873 2-340, chain 1 of 2) above
T2 sequence (P59768 other isoform, or with tags, fused parts or gaps, chain 2 of 2): as the sequence (P59768 other isoform, or with tags, fused parts or gaps, chain 2 of 2) above

Binder: B1
- signal to background [1]: ≤ 4 ratio
- bead fluorescence against uncoated beads [2]: 3 fold
- binding result (β1H6γ2 dimer [3]): no binding

B2: FPR-Giα2 fusion protein (receptor, human;rat)
chain: METNSSLPTNISGGTPAVSAGYLFLDIITYLVFAVTFVLGVLGNGLVIWVAGFRMTHTVTTISYLNLAVADFCFTSTLPFFMVRKAMGGHWPFGWFLCKFVFTIVDINLFGSVFLIALIALDRCVCVLHPVWTQNHRTVSLAKKVIIGPWVMALLLTLPVIIRVTTVPGKTGTVACTFNFSPWTNDPKERINVAVAMLTVRGIIRFIIGFSAPMSIVAVSYGLIATKIHKQGLIKSSRPLRVLSFVAAAFFLCWSPYQVVALIATVRIRELLQGMYKEIGIAVDVTSALAFFNSCLNPMLYVFMGQDFRERLIHALPASLERALTEDSTQTSDTATNSTLPSAEVELQAKAAAMGCTVSAEDKAAAERSKMIDKNLREDGEKAAREVKLLLLGAGESGKSTIVKQMKIIHEDGYSEEECRQYRAVVYSNTIQSIMAIVKAMGNLQIDFADPQRADDARQLFALSCAAEEQGMLPEDLSGVIRRLWADHGVQACFGRSREYQLNDSAAYYLNDLERIAQSDYIPTQQDVLRTRVKTTGIVETHFTFKDLHFKMFDVGGQRSERKKWIHCFEGVTAIIFCVALSAYDLVLAEDEEMNRMHESMKLFDSICNNKWFTDTSIILFLNKKDLFEEKITQSPLTICFPEYTGANKYDEAASYIQSKFEDLNKRKDTKEIYTHFTCATDTKNVQFVFDAVTDVIIKNNLKDCGLF
notes: Solubilized from membranes; in the assays occupied by L^F (fMLFK-FITC), which gives the signal; also called FPR-αi2; FPR-Gαi2
- total fluorescence to background ratio (β1H6γ2 dimer [4]): 2.7 ratio

Binder: B3
- total binding to background ratio [5]: 4.9 ratio
- Kd [6]: 1000 nM

B4: formyl-MLFK-FITC (peptide)
peptide: For-MLFK
modifications: also: FITC conjugate, site not given here
notes: all other places print fMLFK-FITC; also called fMLFK-FITC; fluorescent ligand
- Kd [7]: 4.8 nM
- Kd [8]: ~8 nM

B5: fMLFFGGK (peptide)
peptide: For-MLFFGGK
notes: Synthesized by Commonwealth Biotechnologies; also called non-fluorescent ligand
- EC50 (FPR-GFP fusion protein): 115 nM

Reference: patent US7232659 (dated 2007)
